Measurements reported in US20140336116A1 (GLYTECH, published 2014).
Like-named read-outs stand apart in the source and are kept apart here. One block for each binder: values may come before it. Bridges are numbered along the chain shown (N, C = ends). Where no end group is shown, it is not given here. Side-chain parts run from the residue outwards. disialo(aminoethylamide) = disialo sugar chain with sialic acid carboxy groups modified by aminoethylamino groups; diGlcNAc = diGlcNAc sugar chain; disialo = disialo sugar chain; GlcNAc = N-acetylglucosamine; asialo = not defined here

Key:
[1] = molecular target: T1, somatostatin receptor SSTR4 (Human, UniProt P31391 1-388); assay: cell-based or functional assay
[2] = molecular target: T2, somatostatin receptor SSTR3 (Human, UniProt P32745 1-418); assay: cell-based or functional assay
[3] = molecular target: T3, somatostatin receptor SSTR2 (Human, UniProt P30874 1-369); assay: cell-based or functional assay
[4] = molecular target: T2, somatostatin receptor SSTR3; assay: cell-based or functional assay; remark: listed apart in the source
[5] = molecular target: T4, somatostatin receptor SSTR1 (Human, UniProt P30872 1-391); assay: cell-based or functional assay
[6] = molecular target: T3, somatostatin receptor SSTR2; assay: cell-based or functional assay; remark: listed apart in the source
[7] = molecular target: T3, somatostatin receptor SSTR2; assay: radioligand competition
[8] = molecular target: T1, somatostatin receptor SSTR4; assay: cell-based or functional assay; remark: listed apart in the source
[9] = molecular target: somatostatin receptor SSTR5 (Human, UniProt P35346 1-364); assay: cell-based or functional assay
[10] = molecular target: T1, somatostatin receptor SSTR4; assay: cell-based or functional assay; remark: listed apart in the source
[11] = molecular target: T4, somatostatin receptor SSTR1; assay: cell-based or functional assay; remark: listed apart in the source

T1 sequence (P31391 whole entry): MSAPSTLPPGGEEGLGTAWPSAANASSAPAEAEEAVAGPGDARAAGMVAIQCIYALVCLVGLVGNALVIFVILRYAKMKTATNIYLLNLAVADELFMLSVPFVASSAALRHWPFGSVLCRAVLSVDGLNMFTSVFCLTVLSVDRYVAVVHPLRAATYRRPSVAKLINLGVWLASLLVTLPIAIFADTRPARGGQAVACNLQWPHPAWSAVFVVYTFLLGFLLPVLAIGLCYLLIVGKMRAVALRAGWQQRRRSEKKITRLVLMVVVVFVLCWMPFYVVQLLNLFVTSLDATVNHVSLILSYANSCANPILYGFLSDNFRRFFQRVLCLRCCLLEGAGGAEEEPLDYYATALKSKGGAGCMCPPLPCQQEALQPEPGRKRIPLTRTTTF
T3 sequence (P30874 whole entry): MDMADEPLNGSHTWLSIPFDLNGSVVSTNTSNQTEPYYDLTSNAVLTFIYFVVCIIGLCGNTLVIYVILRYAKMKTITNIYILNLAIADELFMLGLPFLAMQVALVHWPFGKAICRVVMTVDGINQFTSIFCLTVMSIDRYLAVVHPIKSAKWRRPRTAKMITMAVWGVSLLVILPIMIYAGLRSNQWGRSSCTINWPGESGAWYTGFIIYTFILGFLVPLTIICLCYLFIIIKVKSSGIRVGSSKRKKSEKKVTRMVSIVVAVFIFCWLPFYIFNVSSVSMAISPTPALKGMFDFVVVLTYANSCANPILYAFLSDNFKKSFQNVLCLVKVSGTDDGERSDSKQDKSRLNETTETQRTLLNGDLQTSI
somatostatin receptor SSTR5, sequence (P35346 whole entry): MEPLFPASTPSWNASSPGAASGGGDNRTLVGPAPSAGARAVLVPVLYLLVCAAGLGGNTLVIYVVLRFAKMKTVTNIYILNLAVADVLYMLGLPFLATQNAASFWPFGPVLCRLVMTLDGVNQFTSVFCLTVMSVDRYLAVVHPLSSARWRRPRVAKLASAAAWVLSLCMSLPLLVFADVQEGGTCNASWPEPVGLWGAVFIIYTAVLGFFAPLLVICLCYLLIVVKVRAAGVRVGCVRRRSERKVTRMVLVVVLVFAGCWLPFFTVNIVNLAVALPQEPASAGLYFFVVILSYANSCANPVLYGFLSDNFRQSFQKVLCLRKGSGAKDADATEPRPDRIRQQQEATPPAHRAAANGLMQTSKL
T4 sequence (P30872 whole entry): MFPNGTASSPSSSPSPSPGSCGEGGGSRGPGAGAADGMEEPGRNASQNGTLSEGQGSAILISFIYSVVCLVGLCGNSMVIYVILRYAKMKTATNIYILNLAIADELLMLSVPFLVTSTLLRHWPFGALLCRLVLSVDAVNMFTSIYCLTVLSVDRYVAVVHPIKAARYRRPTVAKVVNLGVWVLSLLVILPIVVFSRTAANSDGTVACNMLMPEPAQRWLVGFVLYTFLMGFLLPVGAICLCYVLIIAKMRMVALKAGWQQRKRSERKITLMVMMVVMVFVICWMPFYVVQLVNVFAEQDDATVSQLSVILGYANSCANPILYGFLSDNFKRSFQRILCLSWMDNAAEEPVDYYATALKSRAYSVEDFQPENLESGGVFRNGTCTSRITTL
T2 sequence (P32745 whole entry): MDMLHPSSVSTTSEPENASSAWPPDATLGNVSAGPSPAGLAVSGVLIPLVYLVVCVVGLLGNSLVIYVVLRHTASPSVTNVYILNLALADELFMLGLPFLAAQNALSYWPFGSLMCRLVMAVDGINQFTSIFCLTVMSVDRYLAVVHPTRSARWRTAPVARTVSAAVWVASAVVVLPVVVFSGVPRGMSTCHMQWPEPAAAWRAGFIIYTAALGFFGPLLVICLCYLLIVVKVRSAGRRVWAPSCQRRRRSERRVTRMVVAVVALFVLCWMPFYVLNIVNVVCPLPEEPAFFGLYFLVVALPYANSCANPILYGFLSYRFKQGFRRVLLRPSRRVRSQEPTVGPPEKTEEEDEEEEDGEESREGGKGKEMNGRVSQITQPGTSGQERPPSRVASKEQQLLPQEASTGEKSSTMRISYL

B1: S1-3C(asialo)-SRIF28 (peptide)
peptide: CCCANSNPAMAPRERKAGCKNFFWKTFTSC
modifications: Ser1 replaced by three consecutive Cys each with an asialo sugar chain; disulfide Cys17-Cys28
IC50, cAMP production suppressing action [1]: 0.1 nM

Binder: C(diGlcNAc)ANSNPAMAPRERKAGCKNFFWKTFTSC (disulfide 17-28) [S1C(diGlcNAc)-SRIF28]
IC50, cAMP production suppressing action [1]: 0.05 nM

Binder: C(GlcNAc)ANSNPAMAPRERKAGCKNFFWKTFTSC (disulfide 17-28) [S1C(GlcNAc)-SRIF28]
IC50, cAMP production suppressing action [3]: 0.04 nM

Binder: C(asialo)ANSNPAMAPRERKAGCKNFFWKTFTSC (disulfide 17-28; reading uncertain) [S1C(asialo)-SRIF28]
IC50 [7]: 0.2 nM

Binder: C(disialo)ANSNPAMAPRERKAGCKNFFWKTFTSC (disulfide 17-28) [S1C(disialo)-SRIF28]
Ki [7]: 0.269 nM
IC50, cAMP production suppressing action [6]: 0.075 nM
IC50, cAMP production suppressing action [10]: 0.065 nM

Binder: C([Asn-disialo])ANSNPAMAPRERKAGCKNFFWKTFTSC (disulfide 17-28) [S1C(Asn(disialo))-SRIF28]
IC50, cAMP production suppressing action [11]: 2 nM

Continued, values first:

IC50, cAMP production suppressing action [1]: 0.1 nM
Binder: CAGCKNFFWKTFTSC (disialo sugar chain on the Cys added before Ala15; disulfide Cys17-Cys28) [C(disialo)-SRIF14]

IC50, cAMP production suppressing action [2]: 0.1 nM
Binder: C(disialo sugar chain)KAGCKNFFWKTFTSC (disulfide 5-16) [C(disialo)-K-SRIF14]

IC50, cAMP production suppressing action [4]: 0.3 nM
IC50, cAMP production suppressing action [5]: 1 nM
IC50, cAMP production suppressing action [6]: 0.1 nM
Binder: C(disialo(aminoethylamide))ANSNPAMAPRERKAGCKNFFWKTFTSC (disulfide 17-28) [S1C(disialo(aminoethylamide))-SRIF28]

IC50, cAMP production suppressing action [8]: 1.6 nM
B2: 3C(disialo)-R-K-SRIF14 (peptide)
peptide: CCCRKAGCKNFFWKTFTSC
modifications: disialo sugar chain on each of the three N-terminal Cys of the added Cys-Cys-Cys-Arg-Lys-; disulfide Cys17-Cys28

IC50, cAMP production suppressing action [9]: 0.09 nM
Binder: C(trisialo sugar chain)ANSNPAMAPRERKAGCKNFFWKTFTSC (disulfide 17-28) [S1C(trisialo)-SRIF28]

IC50, cAMP production suppressing action [3]: 0.08 nM
Binder: C(disialo)ANSNPAMAPRERKAGCKC(GlcNAc)FFWKTFTSC (disulfide 17-28) [S1C(disialo)•N19C(GlcNAc)-SRIF28]

IC50, cAMP production suppressing action [9]: 0.09 nM
Binder: C(disialo)ANSC(disialo)PAMAPRERKAGCKNFFWKTFTSC (disulfide 17-28) [S1C(disialo)•N5C(disialo)-SRIF28]

IC50, cAMP production suppressing action [10]: 0.05 nM
Binder: C(disialo sugar chain)RKAGCKNFFWKTFTSC (disulfide 6-17) [C(disialo)-R-K-SRIF14]
